The source of these data is patent US20050112168A1 (UNIVERSITY OF ROCHESTER, published 2005).

For assay [1], the target named is T1, VP-16-AD-GPC412 (VP-16-AD fused to GPC4 deficient in the 12 amino acids of Clone 5) (human, UniProt O75487 19-556).
T1 construct: also called 12 amino acid deficient version of GPC4
T1 sequence: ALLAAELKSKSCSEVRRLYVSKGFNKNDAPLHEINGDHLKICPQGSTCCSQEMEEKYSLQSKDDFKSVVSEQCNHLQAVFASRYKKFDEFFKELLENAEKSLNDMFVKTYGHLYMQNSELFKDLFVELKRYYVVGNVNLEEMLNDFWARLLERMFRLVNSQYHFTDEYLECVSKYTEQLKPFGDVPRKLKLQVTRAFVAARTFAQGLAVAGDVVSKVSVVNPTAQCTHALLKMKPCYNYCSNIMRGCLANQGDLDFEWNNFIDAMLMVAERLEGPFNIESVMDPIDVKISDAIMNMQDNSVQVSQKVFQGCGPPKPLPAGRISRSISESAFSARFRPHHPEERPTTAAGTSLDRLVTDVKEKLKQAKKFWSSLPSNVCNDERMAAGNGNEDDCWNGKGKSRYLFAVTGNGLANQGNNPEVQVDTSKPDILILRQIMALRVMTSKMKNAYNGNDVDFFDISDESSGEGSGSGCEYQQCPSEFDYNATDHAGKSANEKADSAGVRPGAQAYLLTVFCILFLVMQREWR
The assay can be described thus: mammalian two-hybrid luciferase assay.

For another assay, the target named is T2, type II TGFβ receptor (UniProt P37173 23-567, limits assumed).
T2 construct: From lysate of transfected cells; also called TGFβRII; TGFβ type II receptor
The assay can be described thus: GST-TRAP pull-down from lysate of cells without HIS-TRIP, Western.

A further assay concerns the target T3, Smad 2 (UniProt Q15796 2-467, limits assumed).
T3 construct: Detected by a bought antibody in the pull-down
Described as above.

Assay [2] deals with T4, purified type V tartrate resistant acid phosphatase (TRAP), also known as uteroferrin (UniProt P09889 22-340, limits assumed).
T4 construct: Purified protein used as immobilised bait, in ELISA, Scatchard, Far-Western and GST pull-down; also called type V TRAP; purified TRAP
T4 sequence (looked up): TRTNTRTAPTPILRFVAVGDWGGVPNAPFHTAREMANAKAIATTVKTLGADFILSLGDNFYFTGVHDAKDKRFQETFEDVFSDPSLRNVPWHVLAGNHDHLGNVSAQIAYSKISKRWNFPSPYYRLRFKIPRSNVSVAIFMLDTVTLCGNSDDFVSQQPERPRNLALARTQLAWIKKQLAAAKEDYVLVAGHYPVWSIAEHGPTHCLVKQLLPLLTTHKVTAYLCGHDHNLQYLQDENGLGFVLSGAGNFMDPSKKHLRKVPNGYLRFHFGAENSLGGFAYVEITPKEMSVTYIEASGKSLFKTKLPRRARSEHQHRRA
The assay can be described thus: modified phage ELISA on immobilised TRAP, antibody to the phage coat.
Description: The binding was compared to wild type phage containing no expressed oligopeptides.

Assay [3] deals with T4, purified type V tartrate resistant acid …. The assay can be described thus: M13 random 12-mer phage display, three rounds of bio-panning on immobilised TRAP.
Description: After three rounds of bio-panning, elution and amplification 44 phage clones were selected at random and sequenced.
The target is the same in assay [4]. Put plainly: Scatchard-type analysis, immobilised TRAP and increasing phage titer, bound phage counted by plaque assay.
Protocol: After a one hour room temperature incubation, each well was washed with PBS with 0.5% [v/v] Tween 20 four times. The bound phage where then amplified directly in the wells by the addition of 100 ul of log-phase ER2537 (M13 bacteria host). The number of phage in each well was then determined with a standard plaque assay. […] The bound and free fraction of phage were then determined.
The next assay addresses T5, bovine serum albumin (bovine, UniProt P02769 25-607).
T5 construct: Control; also called BSA
The assay can be described thus: Far-Western, proteins on membrane probed with Clone 5 phage.

Another assay concerns the target T6, RNase A (UniProt P61823 27-150).
T6 construct: Control
T6 sequence (looked up): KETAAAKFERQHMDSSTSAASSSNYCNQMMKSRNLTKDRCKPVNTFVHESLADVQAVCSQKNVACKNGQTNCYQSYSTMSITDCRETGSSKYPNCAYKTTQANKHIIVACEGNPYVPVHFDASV
The assay is described as above.

Ends that are not written are not given here.

T3 sequence (Q15796 2-467 limits assumed): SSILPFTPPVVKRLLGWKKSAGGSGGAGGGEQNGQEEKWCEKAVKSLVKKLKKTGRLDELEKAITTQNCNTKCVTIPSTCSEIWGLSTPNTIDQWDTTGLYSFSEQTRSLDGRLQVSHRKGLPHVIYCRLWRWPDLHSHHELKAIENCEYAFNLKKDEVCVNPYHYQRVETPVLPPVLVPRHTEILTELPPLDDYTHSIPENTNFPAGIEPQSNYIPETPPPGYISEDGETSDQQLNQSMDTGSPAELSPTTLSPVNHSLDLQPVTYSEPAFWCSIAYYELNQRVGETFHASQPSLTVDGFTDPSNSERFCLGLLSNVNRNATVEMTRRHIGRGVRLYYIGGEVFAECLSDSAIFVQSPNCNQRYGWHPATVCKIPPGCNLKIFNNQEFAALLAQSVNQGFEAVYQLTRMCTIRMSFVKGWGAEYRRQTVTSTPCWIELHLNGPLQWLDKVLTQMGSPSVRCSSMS
T5 sequence (P02769 25-607 limits assumed): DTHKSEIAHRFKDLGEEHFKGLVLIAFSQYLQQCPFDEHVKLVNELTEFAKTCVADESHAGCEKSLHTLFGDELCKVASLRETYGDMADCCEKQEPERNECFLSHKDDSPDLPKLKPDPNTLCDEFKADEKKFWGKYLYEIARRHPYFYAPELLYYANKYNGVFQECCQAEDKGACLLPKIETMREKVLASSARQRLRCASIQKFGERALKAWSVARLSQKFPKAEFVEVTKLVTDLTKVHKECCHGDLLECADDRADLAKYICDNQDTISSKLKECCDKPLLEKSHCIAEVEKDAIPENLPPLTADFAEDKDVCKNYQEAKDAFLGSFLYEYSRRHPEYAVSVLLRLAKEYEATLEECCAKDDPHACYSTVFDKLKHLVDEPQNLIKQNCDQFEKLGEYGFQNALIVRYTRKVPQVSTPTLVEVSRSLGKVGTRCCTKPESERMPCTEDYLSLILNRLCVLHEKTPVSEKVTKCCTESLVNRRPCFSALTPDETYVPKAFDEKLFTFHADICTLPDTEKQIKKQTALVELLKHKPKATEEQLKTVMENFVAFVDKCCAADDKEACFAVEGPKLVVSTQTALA
T2 sequence (P37173 23-567 limits assumed): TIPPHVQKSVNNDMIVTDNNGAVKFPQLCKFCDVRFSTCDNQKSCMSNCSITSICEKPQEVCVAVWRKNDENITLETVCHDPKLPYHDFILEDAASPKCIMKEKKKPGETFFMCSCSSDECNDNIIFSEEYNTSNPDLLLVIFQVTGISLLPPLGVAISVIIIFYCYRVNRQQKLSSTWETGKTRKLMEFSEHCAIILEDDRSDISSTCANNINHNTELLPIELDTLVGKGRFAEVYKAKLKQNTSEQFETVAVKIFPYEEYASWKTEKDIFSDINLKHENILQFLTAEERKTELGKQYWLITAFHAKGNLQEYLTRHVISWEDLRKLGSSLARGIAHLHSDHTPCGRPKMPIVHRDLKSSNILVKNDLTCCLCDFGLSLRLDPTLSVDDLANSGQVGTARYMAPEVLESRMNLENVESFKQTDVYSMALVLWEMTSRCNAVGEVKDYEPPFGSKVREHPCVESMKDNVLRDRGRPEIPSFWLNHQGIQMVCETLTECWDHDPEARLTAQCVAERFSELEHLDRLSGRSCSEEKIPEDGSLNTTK
Protocol for RNase A: (§1) They were then transferred to PVDF membranes (NEN) and incubated with 10¹⁰ phage particles from selected clones at 4° C. for overnight. The membrane was washed in PBS with 0.5% [v/v] […] An anti-M13 phage peroxidase-conjugated antibody at a dilution of 1:15000 was added and gently swirled at room temperature for an hour. […] Detection of the phage/antibody complex was accomplished using ECL-plus (Amersham) with the membrane being exposed to Kodak Biomax MR film for 30 seconds.
Protocol for Smad 2: (§2) The GST fusion proteins were pulled down by glutathione coated beads (Amersham) in 4° C. for 1 h then washed three times with NETN buffer (20 mM Tris/pH 8.0, 100 mM NaCl, 6 mM MgCl₂, 1 mM EDTA, 0.5% NP-40, 1 mM DTT, 8% glycerol, and 1 mM PMSF). The purified GST fusion proteins and beads were suspended in 100 μl NETN buffer. […] After incubating for 1 h at 4° C. with agitation, the glutathione-coated beads were washed with NETN buffer four times then the protein complexes were loaded in SDS-PAGE and visualized by using the ECL-plus method.
(§3) Detection of HIS-TRIP was performed with anti-HIS antibodies and detection of the TGFβRII and Smad 2 were performed with a commercially available antibodies. For these studies, all cells were transfected with the TGFβRII. […] The cells were lysed and the lysate incubated with glutathione beads. The beads were extensively washed and the proteins interacting with the beads were analyzed with Western analysis.
Protocol for bovine serum albumin: as §1
Protocol for type II TGFβ receptor: as §2, §3

B1: GAL-4-BD-TRAP fusion protein (other)
chain: MKLLSSIEQACDICRLKKLKCSKEKPKCAKCLKNNWECRYSPKTKRSPLTRAHLTEVESRLERLEQLFLLIFPREDLDMILKMDSLQDIKALLTGLFVQDNVNKDAVTDRLASVETDMPLTLRQHRISATSSSEESSNKGQRQLTVSATPALRFVAVGDWGGVPNAPFHTAREMANAKEIARTVQILGADFILSLGDNFYFTGVQDINDKRFQETFEDVFSDRSLRKVPWYVLAGNHDHLGNVSAQIAYSKISKRWNFPSPFYRLHFKIPQTNVSVAIFMLDTVTLCGNSDDFLSQQPERPRDVKLARTQLSWLKKQLAAAREDYVLVAGHYPVWSIAEHGPTHCLVKQLRPLLATYGVTAYLCGHDHNLQYLQDENGVGYVLSGAGNFMDPSKRHQRKVPNGYLRFHYGTEDSLGGFAYVEISSKEMTVTYIEASGKSLFKTRLPRRARP
notes: Expressed inside transfected cells
On to B1, for which, in assay [1], the binding result is listed as “no binding”.

B2: GST-TRAP fusion protein (other)
chain: ATPALRFVAVGDWGGVPNAPFHTAREMANAKEIARTVQILGADFILSLGDNFYFTGVQDINDKRFQETFEDVFSDRSLRKVPWYVLAGNHDHLGNVSAQIAYSKISKRWNFPSPFYRLHFKIPQTNVSVAIFMLDTVTLCGNSDDFLSQQPERPRDVKLARTQLSWLKKQLAAAREDYVLVAGHYPVWSIAEHGPTHCLVKQLRPLLATYGVTAYLCGHDHNLQYLQDENGVGYVLSGAGNFMDPSKRHQRKVPNGYLRFHYGTEDSLGGFAYVEISSKEMTVTYIEASGKSLFKTRLPRRARP
notes: also called 'GST' tagged TRAP; recombinant GST-TRAP; not shown: glutathione S-transferase tag (Amersham Pharmacia GST system)
B2: the binding result in the assay with type II TGFβ receptor and in the assay with Smad 2 was “no binding” in each case.

B3: M13 phage clone displaying SEQ ID NO:21 (peptide)
peptide: SQWHPRSASYPM
notes: also called ID No. 21; not shown: M13 phage coat protein carrying the random 12-mer; not specified
As to B3, the “fold increase in affinity for TRAP over wild type phage” value in assay [2] worked out at 40 fold. Besides, the “Fre (frequency among 44 sequenced clones after bio-panning with TRAP)” value (shortened to “Fre”) in assay [3] is 4 of 44 clones.

B4: M13 phage clone displaying SEQ ID NO:22 (peptide)
peptide: TPSLPPTMFRLT
notes: also called ID No. 22; not shown: M13 phage coat protein carrying the random 12-mer; not specified
For B4, the “fold increase in affinity for TRAP over wild type phage” value in assay [2] came out at 40 fold. In addition, the “Fre” value in assay [3] was 4 of 44 clones.

B5: Clone 5 phage (M13 phage displaying the 12-mer TPLSYLKGLVTV) (peptide)
peptide: TPLSYLKGLVTV
modifications: also: displayed on M13 phage coat protein (protein and linker not given here)
notes: also called GPC4 phage (Clone 5); ID No. 23; not shown: M13 phage coat protein carrying the random 12-mer
As for B5, the “Fre” value in assay [3] is 15 of 44 clones. The molecule also had a Kd in assay [4] of 0.11 nM. Moreover, the binding result with bovine serum albumin and with RNase A was “no binding (tested: 5 ug loaded)” in each case.

Usually Kd stands for a measure of binding affinity in units of concentration.
